According to publication PMC10821612:

Experiments:
[1] = target: AMS0229 E1E2 glycoprotein on HCV pseudoparticles (HCVpp) (Hepatitis C virus (genotype 1a))
[2] = target: UKNP1.2.3 E1E2 glycoprotein on HCV pseudoparticles (HCVpp) (Hepatitis C virus)
[3] = target: UKNP2.4.1 E1E2 glycoprotein on HCV pseudoparticles (HCVpp) (Hepatitis C virus (genotype 2))

For “Soluble CD81 LEL with Strep-tag (soluble version of the long external loop of the CD81 receptor) (domain or fragment)”, the IC50 of neutralisation of HCVpp infection of Huh-7 cells (luciferase) [1] was 92 µg/mL, the IC50 of neutralisation of HCVpp infection of Huh-7 cells (luciferase) [2] was 85 µg/mL and the IC50 of neutralisation of HCVpp infection of Huh-7 cells (luciferase) [3] was 82 µg/mL.
